This note sets out measurements from US20200407673A1, “DEVICE, KIT AND METHOD FOR THREE-DIMENSIONAL CELL CULTURE” (RIGENERAND S.R.L., priority 2018, published 2020).

For the experiment, the system named is luciferase positive tumor cells. In words: efficacy of sTRAIL on luciferase-positive tumor cells grown in the three-dimensional culture device, luciferin light signal. In kind it is cell-based. The note with it: cells grown 72 hours in the device, then 24 hours of treatment; luciferin substrate, luminometer. How it is done:
In the culture device 1 the tumor cells “C” which are luciferase-positive are grown for 72 hours and it is possible to monitor the extent of the growth and estimate the number of tumor cells “C” grown inside the culture device 1 by adding the luciferin substrate and detecting the light signal, as shown in the diagram in FIG. 20.
The effectiveness of the sTRAIL biological agent, which is added to the culture medium and is loaded inside the culture device 1, is tested on the tumor mass inside the culture device 1 evaluated at 72 hours.
The efficacy of the treatment is determined after 24 hours by adding the luciferin substrate which is metabolized by the viable tumor cells “C” by the action of the luciferase.
Since the cells “C” that are dead or in apoptosis no longer produce the enzyme, they cannot metabolize the substrate and, consequently, they are no longer able to generate a light signal.

B1: sTRAIL: soluble TNF-related antitumor biological agent apoptosis-inducing ligand; biological cytotoxic agent (protein, UniProt P50591 39-281, looked up)
extracellular domain: TNELKQMQDKYSKSGIACFLKEDDSYWDPNDEESMNSPCWQVKWQLRQLVRKMILRTSEETISTVQEKQQNISPLVRERGPQRVAAHITGTRGRSNTLSSPNSKNEKALGRKINSWESSRSGHSFLSNLHLRNGELVIHEKGFYYIYSQTYFRFQEEIKENTKNDKQMVQYIYKYTSYPDPILLMKSARNSCWSKDAEYGLYSIYQGGIFELKENDRIFVSVTNEHLIDMDHEASFFGAFLVG
modifications: extracellular domain soluble form
With B1, the “light signal (RLUs, proportional to viable cells) after treatment” value was “light signal is reduced in intensity”.
